# Results as given in a protein production outcome set (Wang et al. 2014).
# Assay: label from the status in PepcDB records
row,Sequence,protein production
1,MKDEVQLKKYLPSLIFAIILPVIAYLFLKMLGNSDTLALGIATAFPVVHMLWSLIRKKELNPVSLVAIIGFLISLLAVYLTHGNNLAFKLWHPILTAAIGTIFLLSVLLNRPLLELASEGENHRKMLIMTLFMGLVFIFHALSVILLAFFVETTAFVLLSKVIDFSAVGVLVLGLAFLRKKLN,failed
2,MKDFFPLQQGGLVLEWVNTETKLRQLWAFRHRIFREQLQWVPLCEDGFDRDAYDDFSDNLVLCRDGEVVGAIRLTTGEHPFMLEEEFSRLLAPGERIGKGAEYSEITRLAVDREALGARESIMAARLLYLGAWLWSQVQGVRWMYFVVEPVFYRRLVMMGFPIVPVGIPRPLDGGVMSMTGLLDWRQAKTELIRSLTRGVSSPSACQALWHEYDYSH,failed
3,MKDFIRYTKKRNLSLNTIRTYESVLKHYEPVLDSWIKIRNKIINSNFKPRTIHLHKNVLLSFFEFKKLKRYLQNLKLLKLPQIEMKYFDVISKNNLYKKTDILDDDSLEIKKYKTIIRFLFETGIRAHELFFLESINNRLYVLGKGNKKRQIFFVKQTFEQLQKFYENLKGFETTKTLRLYIKKIIGKNFTPHSLRRSFATFMLIKGANPKTVMLQMGHANIQTTFSYLNLNEQTNRRIYNKIMYQNDAE,failed
4,MKDLKDSLKILYQFKTDYLKVTLLLTILQAFVIGPFIYYFFFFILRVIGVPGITDANLGEVFSSPVAVIMLLILALLILLFVYYELGFFIMMAIYQLRGESYTVFKIIQRLNVKAKYFLSYQAIYFLLYFFLLLPIAGLSLPITITENLYLPHFITDELMKTTTGTWLYVIAIAIIFYISARLVFALPYFIEDKSLKISGAIRKSWKFSQKHLFFMLLKWVLIIVVIGFLVSIIATIIMLPLLLVEKITPGIAVVIAGITLTILQVIGFFAAGIFQGIIAQLLVKNAFAIEGQHAPVARNQFPHKKRFIIVAIIVFIIFSGFNIFTVNATLYEPNTKIIAHRGDTMNAVENTVEAIESAAKSGADYSEIDIQETKDHQFVVFHDMTLRRLAGSSKRVADMTLKELQQTKVKSGDYSSHIASFDEIIKTAKKNKIDLLVEVKLHGGESSDMVERLVTLLKKEKVTDKYLVQSLNQPVIEEIEKADPSLKTGIILALNIGNLPKTSADFIVLEDFSINKRLLTQAKQNDKMVFVWTVNKEKLMQMYLRKNVDGIITNYPKKAIELRESFNENDSLRSRIENRLGF,failed
5,MKDLLKWKFVETLDFLFDMDKYGRQMLFLQERGRMKLMEGFAVEFRGDGWDNDLASYCGKIVECSWDKEKKVWVSLRIRVDKSKPNGIGTGRSVIKCIEDDLTKEVLLKEIKEIILLP,not failed
6,MKDLYQKFIYLIPSIIIFLITLSVTLKYSWPIGWDIFYHIHLSKVYMANGLTFFDPIYNAPGTIINYPPVFHLVILVLGYVLRMDLFDVARLMQPFLAALVALSVTVVASRLYEDKYVGIFAGLILFSGSIAMRLGSSLPENMALIFLPLSIFFFYEFFKDDKIIASFISGCLTGLVALIHPAATFCLVFAITFITAGLVITEFYFERDTGVIKRALKGYAILIGTAGLIASVWWLPAFYFKSLGHGGVATSLSVSRSLSILKYPDALGYFVLVLAVAGIIPAIRRFELRDRLILLWIISMFILSKSYYFGINVITYRVLIYIMIPLTILASSGLISVVEAIKNKNKDIARILLIALFIFAVFQAFNNLSSSKVADYGAMTAYGRINIAPPTDSEFELAKWFNSQNEDGKISLSNYFTGGFVMAYTNRPVDSLLYEKSEIPSRDELTEREISYLVFDKRLKASGDFKFNASSSFLFYNPNRINISDLEYPYLQKIYENQDFVVYRVL,failed
7,MKDTLKIGLLGLGTVGTGVLTLLKEHQEKISQVTGMNVVIEKAFVRNLETKQAQAEEYGLSLTTSIDDILEDKEIQIVVELMGTIEPAKTYIMKALEKGKHIVTANKDLLAQHGSELVALAQKHHCDLYYEASVAGGIPILRTIANSLAADNIQQVLGIVNGTTNYMLTQMVSADKSYEEALAEAQALGFAEADPTNDVDGIDAAYKMVILSQFAFGMNVSLPQVDIRGIRGLSLDDVAMAKQLGYEIKLIGSAEQNENSISVEVAPMLVNQKHPIASVRNEYNAVFIKSAGVGESMYYGPGAGAKPTATSVVSDLITIAKNIRLATTGHMFNSYQHKTQLTSSENVFGQYYFSLDVPDTPGQFLQLTQLMTKAEVSFDQLVQQKSDGQRARIVAITHQISKAQMQQVVIAIQNTEAFQLLNVMKVIGDE,failed
8,MKEARKRMVKRAVQEIKDGMNVNLGIGMPTLVANEIPDGVHVMLQSENGLLGIGPYPLEGTEDADLINAGKETITEVTGASYFDSAESFAMIRGGHIDLAILGGMEVSEQGDLANWMIPGKMVKGMGGAMDLVNGAKRIVVIMEHVNKHGESKVKKTCSLPLTGQKVVHRLITDLAVFDFVNGRMTLTELQDGVTIEEVYEKTEADFAVSQSVLNS,not failed
9,MKEEAVRVIEEVLKQGRTAMVEYEAKQVLKAYGLPVPEEKLAKTLDEALEYAKEIGYPVVLKLMSPQILHKSDAKVVMLNIKNEEELKKKWEEIHENAKKYRPDAEILGVLVAPMLKPGREVIIGVTEDPQFGHAIMFGLGGIFVEILKDVTFRLVPITEKDARKMIQEIKAYPILAGARGEEPADIDAIVDMLLKVSKLVDDLKDYIKEMDLNPVFVYNKGEGAVIVDSRIILKPKD,not failed
10,MKEGTGMVVRSSEITPERISNMRGGKGEVEMAHLLSKEAMHNKARLFARMKLPPGSSVGLHKHEGEFEIYYILLGEGVFHDNGKDVPIKAGDVCFTDSGESHSIENTGNTDLEFLAVIILL,not failed
11,MKEIVERVKTKTKIPVYERSVENVLSAVLASDDIWRIVDLSEEPLPLVVAILESLNELGYVTFEDGVKLTEKGEELVAEYGIGKRYDFTCPHCQGKTVDLQAFADLLEQFREIVKDRPEPLHEFDQAYVTPETTVARVILMHTRGDLENKDIFVLGDDDLTSIALMLSGLPKRIAVLDIDERLTKFIEKAANEIGYEDIEIFTFDLRKPLPDYALHKFDTFITDPPETLEAIRAFVGRGIATLKGPRCAGYFGITRRESSLDKWREIQKLLLNEFNVVITDIIRNFNEYVNWGYAEETRAWKLIPIKKLPEYNWYKSYMFRIETLEGSRGYEDEIPEEDIYNDEESST,not failed
12,MKEKEYLFSLDMKVRDYECDLQGVVNNSNYQRYMEHTRHEFWESLGDNFGQMHEKGLDAFVYKVTITFKQSLRSGDRFRSCLTCHKKGPKLIFMQDIIREDGVMAARGEVEVVAVQDGVLTRGEYFDVLMKDILSKTTKLEHHHHHH,not failed
13,MKELNIALLGLGTVGSGVVKIIEENRQQIKDTINKDIVIKHILVRDKSKKRPLNISQYHLTEDINDILNDNSIDIVVEVMGGIEPTVDWLRTALKNKKHVITANKDLLAIHLKLLEDLAEENGVALKFEASVAGGIPIVNAINNGLNANNISKFMGIFNGTSNFILSKMTHEQTTFKDALEEAQRLGFAEADPTDDVEGVDAARKVVITSYLSFNQVIKLNDVKSVGISDITLADINAANSLNYKIKLIGKGTYENGYVNASVEPTLIHKNHQLAAVENEYNAIYVIGDAVGDTMFYGKGAGSLATGSAVVSDLLNVALFFESNLHTLPPHFELKTEETKEMMDGAEPVVIQEKSNYYIVISNNNKSLEKVEYDIKKKLPFHKSLQLVERDQDTYAIIVTGIETSPEKVLNQSGFNIKKVYPVEGV,failed
14,MKELPRGDLLSPKTEEKFKLTNKAKIFFRPYMDPPEMPSSEYPLWLCTGRVLEHWHSGTMTMRVPELYRAVPEALCYMHPEDAKKLGVKQNEAVWVESRRGKVKARLEHHHHHH,not failed
15,MKELSLFLQNRSVRRVGVFILIAFVLYLLRSQMNIILLTFIFSYLITRLENFILRRISIYRQIIVLLLYVLIAAVIIFVFVKYIPVLADQINQLVKFGNTFLTTDSNNDFINYIVSLANQFDIMKYTEQGVSMILTYLTNVGTVLMNVFIALMLSLFFSLGKEHLVSFTNQFSTSKIGFIYEEVKFFGSKFVATFGKVIEAQFIIALVNAILTTIALWILGFPQLMTLSIMVFLLGLIPVAGVIISLVPLTIIGYSIGGVEYIFYILVVVIIIHALESYVLNPKLMSAKTNLPVFYTFIILIFGEHFFGIWGLIVGIPVVMFFLDVLGVTNQEEIEQPKDTISHT,failed
16,MKENLQDRLERENLKIASFGKRVLAFLIDDMVISLIVFIIFYDRLIQAKDLFETTQIVGNFYLGFILLHFSYQAIFTYLYGASLGKILCKIIILDENLLDKPNLIQSCIRSAVRQVSAMAFMLGFAWALSNDLRKAWEDYLARTIVVDVA,failed
17,MKEQILEKLKTVKYPGFEKDIVSFNFVKDIKIQDDGVFIDIEIVSANPEVANEIRKNTIEALSSLALKNIELNIITPKIPEEKSNSRSGKNIAPQVKNFIMVSSGKGGVGKSTTTVNLAISMAKMGKRVGILDADIYGPNIPRMLGETKTQPEVVGQRLKPILTHGVYMMSMGVLIEEGQGLMWRGAMIMKAIEQLLADVIWPELDVLFLDMPPGTGDAQITSAQSIPIAAGVCVSTPQTVSLDDSKRALDMFNKLHIPIAGVIENMSGFLCPDNGKEYDIFGKGTAEDMAKAYKSEVLAQIPIEMIVREGGDEGKPVSFYHPESVSSKRYLMAAEKIWSFIEKINNEGGADNSAIQPVMNGKSACSHLEHHHHHH,not failed
18,MKETHNSQDRLAYLKQQLPADITRSVIDTLKEDLGGTLDPAADITASLIPADRISTATIITREAGVFCGQLWADEVFKQLGGQVSIEWHVQDGDTLTPNQTLCTLTGPARILLTGERNAMNFIQTLSGCATATARYVQELKGTQCRLLDTRKTIPGLRSALKYAVACGGGYNHRIGVFDAYLIKENHIIACGGIRQAISTAKQLNPGKPVEVETETLAELEEAISAGADIIMLDNFSLEMMREAVKINAGRAALENSGNITLDNLKECAETGVDYISVGALTKHLKALDLSMRFKS,not failed
19,MKETYYFAYGSNMNLDQMAYRCPAASVVEPVHLEGYRLTFCGRGKGSGVATILPEEGSRVEGVLWKITPECEKSLDFYEGYPHLYGKEPVLVQGKDGMKREVMAYTMNAPYKDQPAIPSDLYFMGIVEGCHQNGISSRSVTDALKRVREEVGRQKPSQKKTEVSR,failed
20,MKFDNKAPIYIQIMDKIKIDIINGTLKPGDKLPSVREMAVKFKVNPNTLQRVYQELERENITYTQRGTGSFVREDSDMIINLKKEMASEVIENFIENIKEFGFGNKDILKIVEDKLNEEEK,not failed
21,MKFDVIIIGSGLAGLTAGIRLAEAGKSCAIISNGQSALHFSSGSLDLLTHLPDGTPVSHPKQALSTLAQQAPEHPYSRIGEANVTQLIEQAQTLLSTTRNLDYKGNGDENHYRITPVGRSRMSWMSPQRVPTYSVNQPFPWKKIAVVGIEGFLDFQPQFASSTLNEQGIEAIPYHIHLPLLDRLRDNPSEFRAINIARYLDKPENTQALAEELIKHIDNSVEAIVLPACIGLDEEAPVNLLQECVGKPICLLPTLPPSLLGIRLHQALKLRFQQAGGLIMPGDRAEEADLVGNKVVGIHTRNHTDIPIRSEHVVLATGSFFNNGLIAEFDRIYEPLMELDLLESLPRNEWTQVNVFAKQPYMRFGVNTDSQLRPLKYGEALDNVYAVGALLGGFDPLNEGCGAGVSMISALYAAQQILQSDKSQHTTSAAVEAVL,not failed
22,MKFEAIAVEKIPLIHEGDNLPSIICEKIGLQDRDIMIIASTIVAKAEGEIFRLEDITPGEEALEIAARTGKDPRFIQAVLSKSREVFVETPFMLVTTLAGHTCVNAGIDESNIENGFLLYPPENPDASALKIGKELEKLSGKKLSIIITDTNGRAFKIGQTGVAIGIYNIKPVKRWIGEKDLFGKVLEITEQAIADELAGAANLLMGEGAGGIPVVIIRGLDYYCEGDTSIKESYRPENMDVIKQGLRCLRNKK,failed
